# Experimental data taken from article PMC10123104, “YbiB: a novel interactor of the GTPase ObgE”.
# T1: YbiB Arg123Glu (Escherichia coli BW25113, UniProt P30177 1-320, R123E)
# T1 sequence: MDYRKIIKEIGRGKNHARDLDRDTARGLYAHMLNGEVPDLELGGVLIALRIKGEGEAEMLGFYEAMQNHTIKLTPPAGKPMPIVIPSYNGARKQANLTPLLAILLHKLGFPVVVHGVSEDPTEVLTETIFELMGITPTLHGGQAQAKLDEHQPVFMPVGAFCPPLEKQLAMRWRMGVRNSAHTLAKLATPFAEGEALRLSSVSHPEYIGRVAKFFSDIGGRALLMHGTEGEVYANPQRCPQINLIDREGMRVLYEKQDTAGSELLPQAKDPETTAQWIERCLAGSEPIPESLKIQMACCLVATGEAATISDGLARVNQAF
# T2: YbiB Arg92Glu (Escherichia coli BW25113, UniProt P30177 1-320, R92E)
# T2 sequence: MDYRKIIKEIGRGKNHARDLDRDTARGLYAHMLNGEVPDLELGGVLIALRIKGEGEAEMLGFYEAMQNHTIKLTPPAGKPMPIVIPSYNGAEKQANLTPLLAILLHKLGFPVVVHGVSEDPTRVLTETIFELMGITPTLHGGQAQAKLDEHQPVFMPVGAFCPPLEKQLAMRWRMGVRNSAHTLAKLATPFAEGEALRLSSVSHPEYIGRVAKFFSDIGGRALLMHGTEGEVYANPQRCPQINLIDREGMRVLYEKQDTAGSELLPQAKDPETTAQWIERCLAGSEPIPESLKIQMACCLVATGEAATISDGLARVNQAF
# Experiments:
# [1] = molecular target: T1, YbiB Arg123Glu; assay: EMSA; EMSA: 20 mM HEPES pH 7.5, 150 mM NaCl, 5 mM MgCl2, 2 mM DTT, 5% glycerol, 30 min at 37 C; 6% PAGE in 1x TBE at room temperature; settings: protein: recombinant; tags: N-terminal His6, thrombin site (pET28a); chain copies: 2; label: 5'-32P; single strand
# [2] = molecular target: T2, YbiB Arg92Glu; assay: as above; settings: protein: recombinant; tags: N-terminal His6, thrombin site (pET28a); chain copies: 2; label: 5'-32P; single strand
binder,measurement,setting,value
EMSA_probe (58-nt ssDNA) (ssDNA) DNA: GCTTTTGATGTACCAATGCATCACCATCACCATCAGGAAATGGGTAAGATGCTTGTAG,binding signal,[1],> 10 fold higher apparent KD than WT
same,binding signal,[2],> 10 fold higher apparent KD than WT
